Assay results reported in patent US20140287419A1, “Compositions Having Dicamba Decarboxylase Activity and Methods of Use” (priority 2013, published 2014).

B1: 38 (protein, listed as Variovorax paradoxus)
chain: MAQGKIGLEEHFAIPQTLQDSAGFVPGVYWKELSSRLLDIHDGRLRQMDEHGMEMMILSLNAPAVQAVADPVKAYELAVRANDFLAEQVAKRPDRFQAFAALPMQDPEKATQELERCMSVLGFRGALVNGFSQVGTPDNVAYYDAPQYAPFWAAAERLDAPFYLHPRNPIASWAQIYEGHPWLLGPTWAFAQETAVHALRLMASGLFDRHPGLKIILGHLGEGLPYNMWRVDHRNAWVKAPKGYPAKRKLCEYFQENFYLTTSGNFRTQTLIDAMLEVGSDRILFSTDWPFENIDHASNWFNDTSISEADRKKIGRTNAMSLFKLA
B2: 39 (protein, listed as Agrobacterium fabrum)
chain: MAQGKVALEEHFAIPETLQDSAGFVPGDCWTELQHRLLDIQDTRLKLMDAHGIETMILSLNAPAVQAIPDKTKAIEIARRANDALAEECAKRPDRFLAFAALPLQDPDAATQELRRCVNDLGFVGALVNGFSQEGDGQTPLYYDLPQYRPFWGEVEKLDVPFYLHPRNPLPQDSRIYDGHPWLLGPTWAFAQETAVHALRLMASGLFDEHPRLDIILGHMGEGLPYMMWRIDHRNAWVKLPPRYPAKRRFVDYFNENFHITTSGNFRTQTLIDAILEIGADRILFSTDWPFENIDHASDWFHATSIAEADRVKIGRTNARRLFKLDGR
B3: 42 (protein)
chain: MAQGKIALEEHFAIPDTLQDSAGFVPGDYWKELSARLLDIHEQRLMQMDAYGIEKMILSLNAPAVQAIPDKAKALEISRRANDFLAEQCARNPDRFLGFAALPLQDPDAATAELQRCVKTLGFVGALVNGFSQEGDGVTPLYYDLPQYRGFWAEVEKLAVPFYLHPRNPLPQDSRIYAGHPWLMGPTWAFAQETAVHALRLVGSGLFDDHPALRIILGHMGEGLPYMMWRIDNRNAWVKVAPNYPAKRRIADYFNENFYITTSGNFRTQSLVDAMLEIGADRILFSTDWPFENIDHASDWFDTATISEADRLKIGRTNAATLFNLES
modifications: Agrobacterium radiobacter
B4: 34 (protein)
chain: MAQGKIGLEEHFAIPETLNDSAGFVPGDYWKELSRRLLDIQDDRLRQMDENGMEMMLLSLNAPAVQAVPDRKQACELAVRANDFLAEQVSRRPDRFQALAALPLQDPDFATVELTRCVNELGMRGALVNGFSQIDTPDNVVYYDAPQYASFWAAVEKLDVPFYLHPRNPIASWAQIYDGHPWLLGPTWAFGQETAVHALRLMASGLFDRHPALQIVLGHLGEGLPYSLWRIDNRNAWVKAPKTHPAKKTFRHYFQQNFHLTTSGNFHNQTLIDAILEIGADRILFSTDWPFENIDHAAKWFDSASISEADRTKIGRTNAMKLFKLVA
modifications: Cupriavidus necator
B5: 33 (protein, listed as Rhizobium leguminosarum)
chain: MAQGKIALEEHFAIPETLQDSAGFVPGDYWKELSARLLDIQEKRLRLMDAHGIEKMILSLNAPAVQAIPDRAKALEISRRANDFLAEQCVKNPNRFLGFAALPLQDPDAATQELQRCVTTMGFVGALVNGFSQEGDGTTPLYYDLPQYRSFWAEVEKLNVPFYLHPRNPLPQDSRIYAGHSWLMGPTWAFAQETAVHALRLMGSGLFDEHPALRIIVGHMGEGLPYMMWRIDNRNAWVKVEKSYPAKRPIADYFNENFYITTSGNFRTQSLIDAMLEIGADRILFSADWPFENIDHAANWFDSATISEADRLKIGRTNAVSLFKLDR
B6: SEQ ID NO:22: possible o-pyrocatechuate decarboxylase, Staphylococcus epidermidis M23864: W1 (protein, listed as Staphylococcus epidermidis)
chain: MAKSINFEEHYVVDDIQKETMKYMSSDPNGVPMQTMLKGLEQKSGFTNADDITKHDERIKFMDEHDVEMQVLSYGNGAPSNLEGERAIELCQQANDTLAKYVNEHPDRFVGFATLPINEPQAAVEEFKRCIKELGFKGALIMGHPKNGFLDQDQYDDLFATAEALNVPIYLHPSPVQSDVYQAYYKGNYSDVTAATFACFGYGWHVDVGIHAIHLVLSGVFDRHPNLNMIIGHWGEFVPFFLERMDDILFADHLEHPISYYFKNNFYITPSGMLTKPQFDLVKAEVGVDRILYSADYPYVEPDKLGTFLDELDLTEEEKEKISYKNGAKLLGLEK
B7: SEQ ID NO:26: o-pyrocatechuate decarboxylase, Variovorax paradoxus EPS (protein, listed as Variovorax paradoxus)
chain: MATHMAPMKNKIALEEHFAIDLTIADSQVYARPEVWQGLKSNLLDFEQQRLEKMDEWGTEFSILSLNSPAVQGIPDAKRAIEVAQRANDVLAEQVKRHPTRFGGFAALPMQDPEASARELERCVNQLGFHGFLVNGFSQVGDENIVVYYDDARFNDFWTAAAALKKPFYMHPRDPLLAREPIYDGAHWLTGPTWAFAMETAIHALRLMSSGMFDRHPALQMILGHFGEGIPFNIWRVDHILRKGRRGMPCDKEIGEYLRSNVHITTSGNFRTPTLLSTMLEVGSDRIMYSVDYPFEKHEDAARWFDTCEISENDRQKIGRDNARKLFGLK
B8: SEQ ID NO:19: 2,3-dihydroxybenzoic acid decarboxylase, putative, Talaromyces marneffei ATCC 18224 (protein, listed as Talaromyces marneffei)
chain: MATPIITLEEHYISSAIRDASETDHYAVFPSQIISKLNTLSTERLQDLDNGHVSLQVISHGPGAQPPYLCQAANDELASAISANPTRFAGFALLPIAEPQLAVQELERCITQHKFVGALIDNHTNGQFYDDQKFWPVFEKAQELDAPIYVHPSYPDEESGVAAHYRGNYDDRIAAALGAYGWGWHSDTALSILRLFAAGLFDTYPNIKIIIGHMGEMLPFQLERVIGIASRFGRSRGLREVWTQNIWVTTSGMFALAPLACLLQTMPIERVLYSVDYPFSANEKGFAFLEEIKKSGLIKEGEDWERFLYKNAQELLKVNV
B9: SEQ ID NO:21: reversible 2,6-dihydroxybenzoic acid decarboxylase, Agrobacterium tumefaciens (protein, listed as Agrobacterium tumefaciens)
chain: MAQGKVALEEHFAIPETLQDSAGFVPGDYWKELQHRLLDIQDTRLKLMDAHGIETMILSLNAPAVQAIPDRKKAIEIARRANDVLAEECARRPDRFLAFAALPLQDPDAATQELQRCVNDLGFVGALVNGFSQEGDGQTPLYYDLPQYRPFWGEVEKLDVPFYLHPRNPLPQDSRIYDGHPWLLGPTWAFAQETAVHALRLMASGLFDAHPRLNIILGHMGEGLPYMMWRIDHRNAWVKLPPRYPAKRRFVDYFNENFHITTSGNFRTQTLIDAILEIGADRILFSTDWPFENIDHASDWFNATTIAEADRVKIGRTNARRLFKLDGR
B10: 36 (protein, listed as Agrobacterium sp.)
chain: MAQGKVALEEHFAIPETLQDSAGFVPGDYWTELQHRLLDIQDTRLKLMDAHGIETMILSLNAPAVQAIPDKTKAIEIARRANDALAEECAKRPNRFLAFAALPLQDPDAATQELQRCVNDLGFVGALVNGFSQEGDGQIPLYYDLPQYRPFWGEVEKLDVPFYLHPRNPLPQDSRIYDGHPWLLGPTWAFAQETAVHALRLMASGLFDEHPRLNIILGHMGEGLPYMMWRIDHRNAWVKLPPRYPAKRRFVDYFNENFHITTSGNFRTQTLIDAILEIGADRILFSTDWPFENIDHASDWFHATSIAEADRVKIGRTNARRLFKLDGR
B11: 37 (protein, listed as Burkholderia gladioli)
chain: MATFSNVKKIALEEHFAIAETIEDSAGFVPPDDWVELRGRLLDIQERRLAEMDRAGIELMVLSLNAPAVQAIRDPRQAVELARRANDYLAEQVARRPDRFRAFAALPMQAPEQAIREAERCVRELGFVGALVNGFSEAEDGAELYYDLPRYRPFWAALEALEVPFYLHPRNPLAGRAPIYDGHSWLMGPTWAFGQETAVHALRLMGSGLFDAHPRLQIILGHMGEGLPYSMWRVDNRNAWVSAKPNYPAEKPIAEYFRNNFWLTTSGNFRTQTLIDAMLEIGSDRILFSADWPFENMDHAADWFDHASISENDRIKIGRGNAERLLKLGR
B12: 35 (protein)
chain: MAFKASRKIALEEHFAIDATVQDSAGFVPPSYWAELKRRLLDIHDRRIDEMDRNGVELMVLSLNAPTVQAVPNIKDAYDLSRRANDFLAEQIVKRPERFKGFAALPMQSPDLAARELERCVKELNFVGALVNGFSQVEESGTALYYDLPQYRQFWSVVQALDVPFYLHPRNPLPAHAPIYEGHPWLLGPTWAFGQETAVHALRLMGSGLFDEYPELKIILGHMGEGLPYSMWRIDNRNAWVETQPNYPAKKRIAEYFHKNFWLTTSGNFRTQTLIDAMLEIGSDRILFSTDWPFENVDHAAQWFDDAAISENDRIKIARTNAARLFKLEP
modifications: Burkholderia sp
B13: 3 (protein, listed as Lactobacillus plantarum)
chain: MAKLITVEEHFESAAVTAAMRQAVGNAVLPAVSPALRQYMRDNLPSPAIMQDTQHERLAFMAQYGIDMQVLSYGNSSPQNLSPEQAVPLSQLANDELAKAVVAHPDRYAGLAVLPVGDPQAAVAELNRAVTTLGLRGVLLKGNYQNKFFDEPFFLPIFEAAAALDVPVYFHPSFIPQAVTSHYFESNQWSDVVTGILSSAGYGWHMDVGIQVIRMIASGIFDKLPGLKLISGHWGELVPLFLERLDDELTTYTDLQYPFSTYYRHNVYVTPSGILSAPQLQFMLAEMGADHLMYSIDYPYKQPETSGSFLDIADLTDEQRAQIAFGTATTLFKL
B14: 40 (protein, listed as Rhodococcus jostii)
chain: MAQGKIALEEHFAIPETLNDSAGFVPGTYWDELQARLLDIQDVRLKLMDEHNIETMILSLNAPAVQAIPERERAIDIARRANDVLAEECAKRPDRFRGFAALPLQDPDAAAEELRRCVTELGFVGALVNGFSQSATVDGGSTPLYYDLPRYRPFWAEVERLDVPFYLHPRNPLNQDARIYEGHPWLLGPTWAFAQETAVHALRLMASGLFDEHPGLRIVLGHMGEGIPAMLWRIDHRNAWVDVPPAYPAKRRMVDYFTENFFVTTSGNFRTQTLIDLLLELGSERVMFSTDWPFENINHAAEWFDAASISEADRLKIGRTNAATLFKLDR

Experiment: 14C assay with IPTG-induced recombinant E. coli cells (14CO2 capture from [14C]-carboxyl-labeled dicamba)
Conditions: for Dicamba Decarboxylase Activity: IPTG-induced recombinant E. coli cells, [14C]-carboxyl-labeled dicamba, 14CO2 capture; for Enzymatic Detection level: dicamba decarboxylation activity of the protein of the given SEQ ID NO; for decarboxylation activity of dicamba: E. coli cell assay, 108 sequences tested

Molecule	Dicamba Decarboxylase Activity	Enzymatic Detection level	decarboxylation activity of dicamba
B1	Low	Low	–
B2	No	No	–
B3	Low	Low	–
B4	High	High	–
B5	High	High	–
B6	–	–	showed decarboxylation activity of dicamba
B7	–	–	showed decarboxylation activity of dicamba
B8	–	–	showed decarboxylation activity of dicamba
B9	–	–	showed decarboxylation activity of dicamba
B10	High	High	–
B11	Low	Low	–
B12	High	High	–
B13	Low	Low	–
B14	Low	Low	–
